Assay results taken from paper PMC8501228 (Cell Reports, 2021).

Biological target: SARS-CoV-2 Spike S1, 6x His-tagged recombinant protein (16-685 aa, YP_009724390.1) (SARS-CoV-2, UniProt P0DTC2 16-685)
Assay: ELISA

B1: galectin-8 (LGALS8) recombinant protein (1-317 aa, AAF19370.1) (natural protein)
chain: MMLSLNNLQNIIYNPVIPFVGTIPDQLDPGTLIVIRGHVPSDADRFQVDLQNGSSMKPRADVAFHFNPRFKRAGCIVCNTLINEKWGREEITYDTPFKREKSFEIVIMVLKDKFQVAVNGKHTLLYGHRIGPEKIDTLGIYGKVNIHSIGFSFSSDLQSTQASSLELTEISRENVPKSGTPQLRLPFAARLNTPMGPGRTVVVKGEVNANAKSFNVDLLAGKSKDIALHLNPRLNIKAFVRNSFLQESWGEEERNITSFPFSPGMYFEMIIYCDVREFKVAVNGVHSLEYKHRFKELSSIDTLEINGDIHLLEVRSW
  binding result: binds
